Assay results published in the supplement of paper PMC12764529.
± gives the half width of the 95% confidence interval.

Legend:
[1] = folding stability dG unfold from chymotrypsin proteolysis; higher = more stable
Protocol: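 Folding stability of de novo designed mini-proteins (<80 aa, no Cys; designed by TrROS, TrMRF, ProteinMPNN and the joint model) was measured by cDNA display proteolysis with trypsin and chymotrypsin. Each protease was used at 11 concentrations in a threefold dilution series plus a no-protease condition. K50 was inferred by Bayesian fitting of sequencing counts, and dG unfold was derived against a sequence-predicted unfolded-state K50 (Tsuboyama et al. method). Sequences shown include variable-length N-terminal GS-type padding (SAGGSAGG...) inside a display construct carrying a PA tag. Rows were kept only if the AF2 dimer inter-PAE was >15, to exclude likely homo-oligomers.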

[2] = folding stability dG unfold (combined trypsin and chymotrypsin); higher = more stable
In short: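 Designed mini-proteins (under 80 residues, no cysteine) in a PA-tagged cDNA display construct were digested with trypsin and chymotrypsin. Each protease was used at 11 concentrations (threefold dilutions) plus a no-protease condition, followed by sequencing. K50 was inferred by Bayesian fitting of sequencing counts, and unfolding free energy was derived against a sequence-predicted unfolded-state K50 and a shared folded-state K50, per protease or combined. Only designs with AlphaFold2 dimer inter-PAE above 15 were kept.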

| Sequence | folding stability dG unfold [1] | folding stability dG unfold [2] |
| --- | --- | --- |
| SAGGSAGGSAGGMTRTITVKSPGDAEAVVEELKPLGWEVKEIKKDTANPNVYTVTVEKPSAGGSAGGSAGGS [r10_104_JUSTAS] | 0.752 ± 0.15 kcal/mol | 0.198 ± 0.25 kcal/mol |
| SAGGMPVPKEKVKSVLYLPHPESDEPEVLVLAELGGKPVLFVIPSELSLEEAIKAVEEGVEAGPIDLGSAGG [r13_225_TrMRF] | 0.402 ± 0.14 kcal/mol | -0.355 ± 0.27 kcal/mol |
| SAGGEELVIEFDSLEDALSAIYPRPDLDKVTLVVPGEGVPVVIPVTVTPPDLGVLGRSAEDRPVPLLGSAGG [r13_183_TrMRF] | -0.825 ± 0.2 kcal/mol | < -1 kcal/mol |
| SAGGSAGGSAGMNIVVSSEEEAEKAIKELAKKLGKPNNLKNPKVTVIPLEPTPTGGLKKKSAGGSAGGSAGG [r17_237_JUSTAS] | 0.226 ± 0.077 kcal/mol | -0.301 ± 0.16 kcal/mol |
| SAGGSAGGSAGSSSSAVRESFQKSPTNVVTRTVTTYDANPSVLSTSSTTVPLSSVPPELLSAGGSAGGSAGG [r11_493_JUSTAS] | 0.44 ± 0.13 kcal/mol | 0.00507 ± 0.15 kcal/mol |
| SAGGSAMVIDSKEVLEDDVLVTTTAITVDPSTGIKTEDVEEKPVPLPDGTPLPPRKTTRTTPLANASAGGSA [r15_623_JUSTAS] | 0.784 ± 0.025 kcal/mol | 0.175 ± 0.13 kcal/mol |
| SAGGMIEKVEIREVDPETGEVTVTFHVPSEDLEKLGPIPFPGVKEVRFFPGEKTIEARMPLEDALKHSAGGS [r16_614_TrMRF] | 0.538 ± 0.098 kcal/mol | -0.0448 ± 0.19 kcal/mol |
| SAGGDPALLLPVERKVTIEYTDEDGKKFTVGDVTVLPSPEILVKIPGTGETIRVPPSVVKKVEEVPESAGGS [r8_410_JUSTAS] | -0.455 ± 0.18 kcal/mol | < -1 kcal/mol |
| SAGGSAGGSAGGEPEPIPIKVKIYNPEDGKKREVDFWIPYGNIKEVLKELMPKGYKVEIESAGGSAGGSAGG [r7_230_TrROS] | -0.281 ± 0.23 kcal/mol | -0.506 ± 0.33 kcal/mol |
| SAGGSAGGSAGAEPLVREFEGRRIVLYREEDPGTARIEVFVGDKPYTVPLEYVPEELLLDSAGGSAGGSAGG [r11_152_TrMRF] | 0.78 ± 0.085 kcal/mol | 0.325 ± 0.053 kcal/mol |
| SAGGSAGGMKKYTFDSGYEFEIDGATEEEAIEKLKEEGYPLPVKKITAEEVKPEPPPPFERNLKSAGGSAGG [r6_688_JUSTAS] | 0.109 ± 0.23 kcal/mol | -0.451 ± 0.29 kcal/mol |
| SAGGSAGGSGEPRTVLVEVLYDDKPVLIPVTADSEEALPEVARAAIEPLAEKYPHVEIPLPTESAGGSAGGS [r12_230_TrMRF] | 0.164 ± 0.11 kcal/mol | -0.66 ± 0.52 kcal/mol |
| SNLKIKWPNGHEIPIQKNNENVRIKFPGNGQEHPIPKEALEDNTPEEILDHLRDHFRQHGMPPMPVEIEKSA [r9_1211_TrROS] | 0.602 ± 0.083 kcal/mol | 0.192 ± 0.38 kcal/mol |
| SAGGSSPPTTTRTFAHPDGRTTELTVPTLPDGTPVVTTTTGGTTTTLSLSQLEKLPSSWTFTSTSSSAGGSA [r2_431_JUSTAS] | -0.27 ± 0.24 kcal/mol | -0.971 ± 0.64 kcal/mol |
| SAGGSAGGYRITIKDPDGVKIEIWQGPNGMMPIKVENPNGKKRERMVNGPPGDIEDFLKELLKQSAGGSAGG [r6_27_TrROS] | 0.378 ± 0.31 kcal/mol | -0.125 ± 0.59 kcal/mol |
| SSSMTIAKTEVETYPDGVIRTKETFPGSDTYREFDIPVDPSTGKMPVKSTLYDPKTGKSIETTSEIELLESA [r9_825_JUSTAS] | -0.537 ± 0.33 kcal/mol | -0.884 ± 0.64 kcal/mol |
| SAGGSAGGSPPVIHPMTVTTLAYDPATGVVDVLVDDKGKDPAVREAAEAAARAAGHPVEVVPRSAGGSAGGS [r20_157_JUSTAS] | -0.637 ± 0.34 kcal/mol | < -1 kcal/mol |
| SAGGIKELQEALREGNLPEIIKELKKRGYENVKIQPNPDEGTIEIEIERKDPEDGKPEEEELTIPLEPSAGG [r13_359_TrROS] | 0.184 ± 0.084 kcal/mol | -0.271 ± 0.21 kcal/mol |
| SAGGGTVVDPGPRVVTITVRPPDGKPRTITLPLPDATPEEIRARLEAVAAALPEAGATVDVLDIRPLPSAGG [r13_29_JUSTAS] | 0.941 ± 0.024 kcal/mol | 0.397 ± 0.064 kcal/mol |
| SAGGSAGGSAGGWTLEELKNAPPGEPVTITIPMYSPNGDKKQPMRIRITPDDGEIEIEMSAGGSAGGSAGGS [r10_394_TrROS] | 0.908 ± 0.13 kcal/mol | 0.406 ± 0.15 kcal/mol |
| SAGGSAGGSMKLGGKPIKRVESEPLPGPSRLFYIELEDKKIPVVLEGDKLLVSPELFEWEKEGSAGGSAGGS [r20_92_TrMRF] | 0.396 ± 0.22 kcal/mol | -0.0157 ± 0.2 kcal/mol |
| SAGGSAGGSAGRRSVPEEVVEAIAEELPREGLTPKSIEVVEGEDEFEAVIEYDDRTITVAGSAGGSAGGSAG [r3_395_JUSTAS] | 0.492 ± 0.023 kcal/mol | -0.101 ± 0.1 kcal/mol |
| SAGGSRMRILNIDPESNRIRVRHPGKPFTFPVDNIEEVTIDPNDGYLTIKMKGETQTIPLDDPDAFSAGGSA [r2_48_TrROS] | 0.575 ± 0.16 kcal/mol | 0.0825 ± 0.18 kcal/mol |
